Our source for the Kd values is patent US20260001953A1.

The target of the assay is Sialic acid-binding immunoglobulin-like lectin 8 (SIGLEC-8), antigen of the Carterra SPR studies (UniProt Q9NYZ4). Nature of the assay: SPR cross-reactivity table.
Chain of Sialic acid-binding immunoglobulin-like lectin 8 (SIGLEC-8), antigen of the Carterra SPR studies (Q9NYZ4 17-363 limits assumed): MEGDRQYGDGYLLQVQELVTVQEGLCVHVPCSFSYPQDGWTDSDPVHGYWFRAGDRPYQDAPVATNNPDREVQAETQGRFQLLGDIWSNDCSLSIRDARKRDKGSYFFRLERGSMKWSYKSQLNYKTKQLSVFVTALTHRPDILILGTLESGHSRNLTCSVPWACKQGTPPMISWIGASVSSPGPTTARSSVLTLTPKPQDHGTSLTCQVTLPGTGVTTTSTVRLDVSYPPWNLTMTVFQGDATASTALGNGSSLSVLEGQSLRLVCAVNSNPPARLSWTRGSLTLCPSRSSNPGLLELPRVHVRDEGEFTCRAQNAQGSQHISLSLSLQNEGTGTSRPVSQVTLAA

In the case of Control (antibody), the Kd (commonly the constant that tells how readily two partners part at equilibrium) was found to be 0.031 nM.
